Assay results as given in publication PMC8797470, “Disruption of the pentraxin 3/CD44 interaction as an efficient therapy for triple‐negative breast cancers” (Clinical and Translational Medicine, 2022).

Tests used:
CD44 = biological target: T1, CD44 (Homo sapiens, UniProt P16070); assay: Ligand binding ELISA on immobilised CD44; details: HRP-conjugated recombinant proteins; wells coated with 10 μg/ml CD44; 2 h; OD 450 nm
T1 construct: purchased Sino Biological Inc. 12211-H08H
Method: Plate wells (9018; Corning Costar) were coated with 10 μg/ml of CD44 (12211‐H08H; Sino Biological Inc.) in PBS (pH 7.2) and then blocking for 1 h with the blocking buffer including 3% milk in PBS. For the stability binding experiments, the PTX3‐devired biotinylated peptides were pre‐incubated in serum for 1, 2, 4 or 6 h. For the binding experiments, the horseradish peroxidase (HRP)‐conjugated recombinant PTX3, PTX3/N, PTX3/C and PTX3NA or PTX3‐devired biotinylated peptides AD9, GR9, P2rdAD9 and P12rdGR9 (32310; LEADGENE) was responded in the well for 2 h. For the peptide of competition experiments, the PTX3‐devired biotinylated peptides RI37 and GI40 were diluted at the indicated concentration in PBS. After 2 h, PBS washed three times and then incubated with 5 μg/ml HRP‐conjugated PTX3 in PBS for 1 h at room temperature (RT). For the antibody competition experiments, Ab‐10 and Ab‐49 were incubated with 5 μg/ml HRP‐conjugated PTX3 in PBS for 2 h at RT. After incubation, the mixtures was responded in the well for 1 h at RT and then PBS washed three times, tetramethyl benzidine (TMB) was used to detect the bound HRP conjugate. After 15 min, the peroxidase reaction was stopped by adding 0.1 M H2SO4. Next, ELISA plate reader was used to detect the optical densities at 450 nm.

MDA-MB-231 cells = assay: Transwell migration and Matrigel invasion assays; type: cell-based, human; details: treatment in lower well, 18 h
From the text: In migration assay, MDA‐MB‐231 cells seeded in 8.0 μm pore polycarbonate membrane inserts (BD Biosciences) in 24‐well plates. In Matrigel invasion assay, inserts were pre‐coated with an appropriate amount of Matrigel first, and the same number of cells seeded on the Matrigel. After cells adhered on the inserts, serum‐free DMEM medium added in the upper wells. Serum‐free medium containing the treatments of TGF‐β1, PTX3, PTX3NA, PTX3/N, PTX3/C, RI37, GI40, AD9, GR9, IgG1κ, PTX3 Ab‐10 or PTX3 Ab‐49 were then mixed into the lower wells of the 24‐well plates. After incubating for 18 h, cells outside the insert were removed by wiping. The inside the inserts were then stained by 4′,6‐diamidino‐2‐phenylindol (DAPI). Fluorescence microscope was used for counting the total number of migrated cells with 200× magnification. Different from the experimental design for the MDA‐MB‐231 cells, the migrated 4T1‐Luc2 cells in the inside of the insert were detected by luciferase activity.

T1 sequence (P16070 21-220 limits assumed): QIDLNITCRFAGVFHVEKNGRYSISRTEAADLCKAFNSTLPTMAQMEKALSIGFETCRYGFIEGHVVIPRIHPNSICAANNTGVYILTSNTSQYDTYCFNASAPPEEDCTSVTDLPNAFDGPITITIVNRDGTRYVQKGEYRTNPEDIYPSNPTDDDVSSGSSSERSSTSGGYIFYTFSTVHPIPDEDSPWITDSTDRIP

B1: PTX3/C: recombinant truncated mutant, C‐terminus of PTX3, amino acids 180–381 (protein)
chain: ETAILFPMRSKKIFGSVHPVRPMRLESFSACIWVKATDVLNKTILFSYGTKRNPYEIQLYLSYQSIVFVVGGEENKLVAEAMVSLGRWTHLCGTWNSEEGLTSLWVNGELAATTVEMATGHIVPEGGILQIGQEKNGCCVGGGFDETLAFSGRLTGFNIWDSVLSNEEIRETGGAESCHIRGNIVGWGVTEIQPHGGAQYVS
modifications: left off: HRP conjugate, end not stated, kept
CD44
  binding to immobilised CD44: could bind
MDA-MB-231 cells
  migration and invasion, protein alone: mimics PTX3 to induce
